Values quoted from earlier work as cited in patent publication US20240024427A1, “METHOD OF REDUCING INTRAOCULAR PRESSURE” (INVEX THERAPEUTICS LTD, priority 2020, published 2024).
Where two headings read alike, the source gives them in different places.

Experiments:
[1] = conscious rat model, dosed subcutaneously, immediate release formulation

Row | Substance | Mean plasma terminal half-life (per SmPC) | other results
1 | Albiglutide | Approximately 5 days | –
2 | Dulaglutide | 108 to 113 h | –
3 | Lixisenatide | – | Mean plasma terminal half-life (per SmPC or FDA product label): Approximately 3 hours
4 | Semaglutide | Approximately 1 week | –
5 | exendin-4 | – | effect on intracranial pressure (ICP) compared to a saline control [1]: reduced ICP
